From patent US20130224191A1, “NOTUM PROTEIN MODULATORS AND METHODS OF USE” (priority 2010, published 2013)

Tests used:
Notum = target: T1, Notum (Homo sapiens, UniProt Q6P988); experiment: 293.TCF assay with rhWnt3A, standard and preincubation protocol; type: cell-based
T1 sequence (Q6P988 20-496): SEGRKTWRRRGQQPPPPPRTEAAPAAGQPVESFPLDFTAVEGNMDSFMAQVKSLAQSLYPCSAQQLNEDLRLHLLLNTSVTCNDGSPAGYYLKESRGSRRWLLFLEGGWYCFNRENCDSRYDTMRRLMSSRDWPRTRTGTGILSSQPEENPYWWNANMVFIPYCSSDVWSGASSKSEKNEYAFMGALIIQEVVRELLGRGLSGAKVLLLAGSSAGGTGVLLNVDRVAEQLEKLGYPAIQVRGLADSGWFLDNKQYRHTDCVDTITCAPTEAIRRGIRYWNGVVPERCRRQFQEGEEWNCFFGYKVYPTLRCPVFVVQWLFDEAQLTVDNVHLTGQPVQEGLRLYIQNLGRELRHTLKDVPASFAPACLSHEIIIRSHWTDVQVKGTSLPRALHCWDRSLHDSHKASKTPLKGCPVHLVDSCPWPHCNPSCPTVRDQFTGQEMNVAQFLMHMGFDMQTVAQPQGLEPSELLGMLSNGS
Procedure: In order to determine the kinetics of Notum mediated antagonism of Wnt3A signaling, recombinant Notum alone or in the presence of SC2.D2.2 was preincubated with recombinant human Wnt3A (rhWnt3A) for 2 hours at 37° C., prior to addition of the complexes to 293.TCF cells. This resultant induction of luciferase by the rhWnt3A was compared to that observed using the standard protocol for the 293.TCF assay, in which Notum alone or Notum+SC2.D2.2 was added to the cells for two hours prior to the addition of rhWnt3A. […] Of interest however, is the preincubation of Notum and rhWnt3A prior to addition to the 293.TCF cells. In this case the response of the cells to rhWnt3A is reduced greatly (closed circles FIG. 27B).

[1] = tested on: Wnt3A-mediated induction of luciferase in the 293.TCF cells; experiment: Wnt3A canonical signaling assay, bioactivity of Notum constructs; type: cell-based, human; conditions: without added Notum
Summary of the method: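 293.TCF cells (HEK 293T stably carrying a TCF-driven GFP/luciferase reporter), 2.5×10^4 per well, serum-starved 23 h, then given Notum proteins 1 h before Wnt3A or control L-cell conditioned medium.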

[2] = target: T2, mouse Notum (construct not specified at the place of use) (mouse, UniProt Q8R116 20-503, limits assumed); experiment: ELISA, Notum coated directly on plate
T2 construct: Purified antigen from transient transfection of mouse Notum cDNA; also called murine Notum
T2 sequence (looked up): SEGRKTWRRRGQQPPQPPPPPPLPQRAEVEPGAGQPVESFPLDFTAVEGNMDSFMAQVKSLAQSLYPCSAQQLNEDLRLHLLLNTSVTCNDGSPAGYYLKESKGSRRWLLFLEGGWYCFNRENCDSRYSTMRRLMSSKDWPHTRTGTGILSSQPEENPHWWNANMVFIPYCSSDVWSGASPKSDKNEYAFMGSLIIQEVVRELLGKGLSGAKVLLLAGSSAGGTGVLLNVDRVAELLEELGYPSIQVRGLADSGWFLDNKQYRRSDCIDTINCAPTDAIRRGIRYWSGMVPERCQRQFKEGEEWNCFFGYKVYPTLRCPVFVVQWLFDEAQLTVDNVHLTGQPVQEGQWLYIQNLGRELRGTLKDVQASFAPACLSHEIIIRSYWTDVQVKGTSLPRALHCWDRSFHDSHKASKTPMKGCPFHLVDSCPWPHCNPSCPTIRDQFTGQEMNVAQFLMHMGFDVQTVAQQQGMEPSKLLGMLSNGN

macaque Notum N141D = experiment: Neutralization of point mutated macaque Notum, TCF assay; type: cell-based
Excerpt: Similarly, the macaque residue at this position was point mutated to the human residue (N141D). […] However, these point mutants differed in their ability to be neutralized by SC2.D2.2 (FIG. 26).

B1: SC2.D2.2 (antibody, V domains shown)
VH: DVQLVESGGGLVQPGGSRKISCAASGFTFSSYGMHWVRQAPEKGLEWVAYISSSTVTTYYADTVKGRFTISRDNANNTLFLQMTSLRSEDTAMYYCSRQNWDGGYFDVWGAGTTVTVSS
VL: DIVLTQSLASLAVSLGQRATISCRASKSVSSSGYSYMHWYQQKPGQPPKLLIYLASNLESGVPARFSGSGSGTDFTLNIHPVEEEDAATYYCQHSRALPLTFGAGTKLELKR
notes: also called murine SC2.D2.2
- effect on response of cells to rhWnt3A (Notum; Notum complexed with antibody prior to preincubation with rhWnt3A, 2 hours at 37° C.): restores the sensitivity of the cells to rhWnt3A
- effect on Notum antagonism of rhWnt3A (Notum; standard protocol, 10 μg/mL antibody, 250 ng/mL rhWnt3A): blocks the ability of Notum to antagonize the rhWnt3A
- effect of antibody alone on induction of luciferase due to Wnt3A CM [1]: does not inhibit the induction of luciferase due to Wnt3A CM
- binding result [2]: no binding
- neutralization of mutant Notum protein (macaque Notum N141D): now enabled SC2.D2.2 to neutralize the mutant protein
